The source of these data is publication PMC12744750 (Plant Communications, 2025).

The term Kd denotes the constant that tells how readily two partners part at equilibrium.

Ends that are not written are not given here.

The labels stand for the following.
B1: PLS linked to a C-terminal GFP (PLS:GFP), pro35S::PLS:GFP (peptide, UniProt Q8LLV8 1-36, looked up)
chain: MKPRLCFNFRRRSISPCYISISYLLVAKLFKLFKIH-{GFP}
modifications: cysteine pairing not given here
notes: POLARIS (PLS) peptide of Arabidopsis thaliana, gene AT4G39403; the PLS gene without the stop codon (printed as 105 bp) in pEarlyGate103; source: N. benthamiana leaves, transient expression by Agrobacterium infiltration, in protein extract; not shown: GFP, C-terminal, kept
B2: ETR1 with a C-terminal HA tag (ETR1:HA), pro35S::ETR1:HA (receptor, Arabidopsis, UniProt P49333 1-738, looked up)
chain: MEVCNCIEPQWPADELLMKYQYISDFFIAIAYFSIPLELIYFVKKSAVFPYRWVLVQFGAFIVLCGATHLINLWTFTTHSRTVALVMTTAKVLTAVVSCATALMLVHIIPDLLSVKTRELFLKNKAAELDREMGLIRTQEETGRHVRMLTHEIRSTLDRHTILKTTLVELGRTLALEECALWMPTRTGLELQLSYTLRHQHPVEYTVPIQLPVINQVFGTSRAVKISPNSPVARLRPVSGKYMLGEVVAVRVPLLHLSNFQINDWPELSTKRYALMVLMLPSDSARQWHVHELELVEVVADQVAVALSHAAILEESMRARDLLMEQNVALDLARREAETAIRARNDFLAVMNHEMRTPMHAIIALSSLLQETELTPEQRLMVETILKSSNLLATLMNDVLDLSRLEDGSLQLELGTFNLHTLFREVLNLIKPIAVVKKLPITLNLAPDLPEFVVGDEKRLMQIILNIVGNAVKFSKQGSISVTALVTKSDTRAADFFVVPTGSHFYLRVKVKDSGAGINPQDIPKIFTKFAQTQSLATRSSGGSGLGLAISKRFVNLMEGNIWIESDGLGKGCTAIFDVKLGISERSNESKQSGIPKVPAIPRHSNFTGLKVLVMDENGVSRMVTKGLLVHLGCEVTTVSSNEECLRVVSHEHKVVFMDVCMPGVENYQIALRIHEKFTKQRHQRPLLVALSGNTDKSTKEKCMSFGLDGVLLKPVSLDNIRDVLSDLLEPRVLYEGM
notes: the ETR1 cDNA in pEarlyGate301; also called ETHYLENE RESPONSE 1; source: N. benthamiana leaves, transient expression by Agrobacterium infiltration, in protein extract; not shown: HA, C-terminal, kept

One experiment deals with pPLS::PLS:GFP. Description: PLS:GFP fluorescence in root tip after ACC treatment. The note with it: 0, 1 or 10 μM ACC, 2 or 24 hours, n = 17. It counts as in vivo, Arabidopsis. From the text: Figur e S15. The link between auxin and ethylene signalling effects on PLS transcription, and downstr eam effects on […]
in the root tip after ACC treatment. […]
Laser settings were mai nt ai ned at 21% 488 nm 20 mW, 970 V gain.
Images are representative of 10 independetly grown roots. Scale bars […]
Lower panel: Quanti fi cati on of PLS-GFP fluorescence after ACC treatment, detected in seedlings expressing the pPLS::PLS:GFP construct. Seedling root tips at seven d.a.g were imaged by CLSM after treatment with 0, 1 or 10 μM ACC for either 2 or 24 hours.
Fl uorescence intensity in each root was measured using ImageJ and the mean intensity for each treatment was calculated. Error bars show
± 1 standard error, n = 17.

The subject of another experiment is pPLS::GUS. Briefly: pPLS::GUS expression in root tips after hormone treatment. It counts as in vivo, Arabidopsis. The following applies: 10 µM ACC plus 10 μM 2,4-D. From the text: Figure S15. The link between auxi n and et hyl ene si gnal l i ng ef f ect s on PLS transcription, and downstream ef f ect s on et hyl ene responses.
(A) Ant agoni sm between auxi n and et hyl ene on PLS expressi on.
Auxin posit ively regulates PLS gene transcription, whi l e ACC (ethylene pr ecur sor ) […]
Lef t upper panel: pPLS::GUS […]
expr ession in the Arabidopsis root tip under standard gr owt h conditions. Lef t lower panel: pPLS::PLS:GFP expr ession in the Arabidopsis root tip under standard gr owt h conditions.
Ri ght panel: pPLS::GUS expr ession in root tips treated wi t h 10 μM 2,4-D, showing ect opic […]
10 μM 2,4-D plus 10 μm ACC, showing the ant agonism of the inductive eff ect of 2,4-D on PLS::GUS expr ession. Images ar e representative of 10 independently gr own roots. […]

Experiment [1] addresses B2. Briefly: co-IP; anti-HA beads on protein extract of N. benthamiana leaves co-expressing ETR1:HA and PLS:GFP or GFP, 3 days after infiltration; blot with anti-GFP; with 0.5 μM CuSO4 or 2 mM EDTA added to the extract. The following applies: partners not purified.
For the next experiment, the target named is T1, ETR1 1-307 (Arabidopsis thaliana).
T1 chain: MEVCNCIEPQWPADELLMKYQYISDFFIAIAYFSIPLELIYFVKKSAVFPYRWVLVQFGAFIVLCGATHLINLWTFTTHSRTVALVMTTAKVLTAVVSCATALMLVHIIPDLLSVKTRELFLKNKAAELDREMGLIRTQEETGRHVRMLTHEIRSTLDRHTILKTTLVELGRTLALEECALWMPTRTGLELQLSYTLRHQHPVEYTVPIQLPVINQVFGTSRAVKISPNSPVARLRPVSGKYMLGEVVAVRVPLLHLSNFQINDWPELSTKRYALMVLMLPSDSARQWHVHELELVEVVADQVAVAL
Description: MST.

Another experiment deals with T2, ETR1 1-407 (Arabidopsis thaliana).
T2 chain: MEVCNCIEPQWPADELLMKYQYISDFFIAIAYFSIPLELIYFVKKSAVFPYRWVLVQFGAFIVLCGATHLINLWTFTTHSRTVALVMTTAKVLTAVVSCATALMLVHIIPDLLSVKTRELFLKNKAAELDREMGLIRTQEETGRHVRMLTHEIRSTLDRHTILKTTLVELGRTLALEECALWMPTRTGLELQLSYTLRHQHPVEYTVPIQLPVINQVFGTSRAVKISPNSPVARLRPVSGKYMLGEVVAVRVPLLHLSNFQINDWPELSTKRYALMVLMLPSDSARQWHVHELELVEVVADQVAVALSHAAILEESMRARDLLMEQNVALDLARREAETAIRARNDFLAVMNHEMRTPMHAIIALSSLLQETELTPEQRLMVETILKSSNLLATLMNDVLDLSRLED
Briefly: MST.

For another experiment, the target named is T3, ETR1 1-598 (Arabidopsis thaliana).
T3 chain: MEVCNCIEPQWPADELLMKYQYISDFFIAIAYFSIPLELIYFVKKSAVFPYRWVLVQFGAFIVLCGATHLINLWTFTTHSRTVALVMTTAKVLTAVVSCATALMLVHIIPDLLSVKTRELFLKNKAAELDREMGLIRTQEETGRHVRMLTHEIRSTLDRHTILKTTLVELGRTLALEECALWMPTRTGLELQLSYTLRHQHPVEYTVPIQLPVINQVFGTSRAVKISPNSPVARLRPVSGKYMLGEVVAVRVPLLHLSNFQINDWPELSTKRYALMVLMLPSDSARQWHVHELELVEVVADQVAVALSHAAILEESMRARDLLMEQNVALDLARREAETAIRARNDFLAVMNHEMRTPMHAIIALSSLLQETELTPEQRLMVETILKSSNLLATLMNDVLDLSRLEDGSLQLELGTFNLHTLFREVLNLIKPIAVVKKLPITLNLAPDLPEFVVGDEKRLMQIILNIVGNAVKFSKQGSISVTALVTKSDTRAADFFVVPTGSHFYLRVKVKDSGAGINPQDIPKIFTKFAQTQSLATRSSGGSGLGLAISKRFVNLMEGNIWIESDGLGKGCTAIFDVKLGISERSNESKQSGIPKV
Briefly: MST.

The next experiment deals with T4, ETR1 1-157 (Arabidopsis thaliana).
T4 chain: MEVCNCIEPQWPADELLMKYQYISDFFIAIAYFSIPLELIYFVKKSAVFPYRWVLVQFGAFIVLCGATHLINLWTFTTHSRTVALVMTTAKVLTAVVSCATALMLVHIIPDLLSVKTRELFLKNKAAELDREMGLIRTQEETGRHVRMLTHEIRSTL
Description: MST.

The target of experiment [2] is B1. Description: co-IP; anti-GFP beads on protein extract of N. benthamiana leaves co-expressing PLS:GFP and ETR1:HA; blot with anti-HA; with or without EDTA. The following applies: partners not purified.

`NC1(C(=O)O)CC1` [ACC, 1-aminocyclopropane-1-carboxylic acid]: the “expression of PLS:GFP in root tip” value with pPLS::PLS:GFP is “downr egulated”. The “effect on auxin-induced PLS expression” value with pPLS::GUS was “ant agonizes the inductive eff ect s of auxin”.
On to B1, for which the “fold co-precipitated with 0.5 μM copper sulfate against 2 mM EDTA” value in experiment [1] is ~3 fold.
As to MKPRLCFNFRRRSISPCYISISYLLVAKLFKLFKIH (cysteine pairing not given here; also: fluorescently labelled) [synthetic full-length POLARIS (PLS) peptide, PLS(FL)], the Kd turned out to be 1.79 µM in the experiment with ETR1 1-307, 1.65 µM with ETR1 1-407, 2.92 µM with ETR1 1-598 and 1.52 µM with ETR1 1-157.
Consider B2, for which, in experiment [2], the “fold co-precipitated with 0.5 μM copper sulfate against 2 mM EDTA” value is ~3 fold.
